In patent US20250027068:

B1: PRT-13 (protein)
chain: MANQEIRYSEETPYHVTSVWTKGVTPPANFTQGEDVFHAPYKANQGWYDITKTFNGKDDLLCGAATAGNMLHWWFDQNKDQIEAYLKEHPEKQKINFNGEQMFDVKEAIDTKDDQTNSKLFEYFKEKAFPYLSTKHLGVFPDHVLDMFINGYRLSLTNHGPTPVKEGSKDPRGGIFDAVFTRGDQSKLLTSRHDFKEKTLKEISDLIKQELTEGKALALSHTYANVRINHVINLWGADFDSNGNLEAIYVTDSDSNASIGMKKYFVGVNSAGKVAISAKEIEDDNIGAQVLGLFTLSTGQDIWNQTN
B2: PRT-148 (protein)
chain: MANQEIRYSEVTPYHVTSVWTKGVTPPANFTQGEDVFHAPYVANQGWYDITKTFNGKDDLLCGAATAGNMLHWWFDQNKDQIKRYLEEHPEKQKINFNGEQMFDVKEAIDTKNHQLDSKLFEYFKEKAFPYLSTKHLGVFPDHVIDMFINGYRLSLTNHGPTPVKRQSKDPRGGIFDAVFTRGDQSKLLTSRHDFKEKNLKEISDLIKKELTEGKALGLSHTYANVRINHVINLWGADFDSNGNLKAIYVTDSDSNASIGMKKYFVGVNSAGKVAISAKEIKEDNIGAQVLGLFTLSTGQDSWNKTN
B3: PRT-153 (protein)
chain: MANQEIRYSEVTPYHVTSVWTKGVTPPANFTQGEDVFHAPYVANQGWYDITKTFNGKDDLLCGAATAGNMLHWWFDQNKTQIERYLKKHPEKQKINFNGEQMFDVKEAIDTKNHQLDSKLFEYFKEKAFPYLSTKHLGVFPDHVIDMFINGYRLSLTNHGPTPVKEGSKDPRGGIFDAVFTRGDQSKLLTSRHDFKEKNLKEISDLIKKELTEGKALGLSHTYANVRINHVINLWGADFDSNGNLKAIYVTDSDSNASIGMKKYFVGVNSAGKVAISAKEIKEDNIGAQVLGLFTLSTGKDSWKKTN
B4: PRT-150 (protein)
chain: MANQEIRYSEVTPYHVTSVWTKGVTPPANFTQGEDVFHAPYVANQGWYDITKTFNGKDDLLCGAATAGNMLHWWFDQNKDQIKRYLEEHPEKQKINFNGEQMFDVKEAIDTKNHQLDSKLFEYFKEKAFPYLSTKHLGVFPDHVIDMFINGYRLSLTNHGPTPVKRQEKDPRGGIFDAVFGRGDQTKLLTSRHDFKEKNLKEISDLIKKELTEGKALGLSHTYANVRINHVINLWGADFDSNGNLKAIYVTDSDSNASIGMKKYFVGVNSAGKVAISAKEIKEDNIGAQVLGLFTLSTGQKSWNKTN
B5: PRT-151 (protein)
chain: MANQEIRYSEVTPYHVTSVWTKGVTPPANFTQGEDVFHAPYVANQGWYDITKTFNGKDDLLCGAATAGNMLHWWFDQNKDQIKRYLEEHPDKQKINFNGEQMFDVKEAIDTKNHQLDSKLFEYFKEKAFPYLSTKHLGVFPDHVIDMFINGYRLSLTNHGPTPVKRQTKDPRGGIFDAVFGRGDSTKLLTSRHDFKEKNLKEISDLIKKELTEGKALGLSHTYANVRINHVINLWGADFDSNGNLKAIYVTDSDSNASIGMKKYFVGVNSAGKVAISAKEIKEDNIGAQVLGLFTLSTGQKSWNKTN
B6: PRT-152 (protein)
chain: MANQEIRYSEVTPYHVTSVWTKGVTPPANFTQGEDVFHAPYVANQGWYDITKTFNGKDDLLCGAATAGNMLHWWFDQNKTQIERYLKKHPEKQKINFNGEQMFDVKEAIDTKNHQLDSKLFEYFKEKAFPYLSTKHLGVFPDHVIDMFINGYRLSLTNHGPTPVKEGSKDPRGGIFDAVFTRGDQSKLLTSRHDFKEKNLKEISDLIKKELTEGKALGLSHTYANVRINHVINLWGADFDSNGNLKAIYVTDSDSNASIGMKKYFVGVNSAGKVAISAKEIKEDNIGAQVLGLFTLSTGKDSWEKTN
B7: PRT-149 (protein)
chain: MANQEIRYSEVTPYHVTSVWTKGVTPPANFTQGEDVFHAPYVANQGWYDITKTFNGKDDLLCGAATAGNMLHWWFDQNKDQIKRYLEEHPEKQKINFNGEQMFDVKEAIDTKNHQLDSKLFEYFKEKAFPYLSTKHLGVFPDHVIDMFINGYRLSLTNHGPTPVKRQTKDPRGGIFDAVFGRGDQTKLLTSRHDFKEKNLKEISDLIKKELTEGKALGLSHTYANVRINHVINLWGADFDSNGNLKAIYVTDSDSNASIGMKKYFVGVNSAGKVAISAKEIKEDNIGAQVLGLFTLSTGQKSWNKTN
B8: PRT-143 (protein)
chain: MANQEIRYSEVTPYHITSVWTKGVTPPANFTQGEDVFHAPYVANQGWYDITKTFNGKDDLLCGAATAGNMLHWWFDQNKDQIKRYLEEHPEKQKINFNGEQMFDVKEAIDTKNHQLDSKLFEYFKEKAFPYLSTKHLGVFPDHVIDMFINGYRLSLTNHGPTPVKEGSKDPRGGIFDAVFTRGDQSKLLTSRHDFKEKTLNEISQLIKQELTEGKALGLSHTYANVRINHVINLWGADFDAEGNLEAIYVTDSDSNASIGMKKYFVGVNSAGKVAISAKEIKEDNIGAQVLGLFTLSTGQDSWNQTN
B9: PRT-146 (protein)
chain: MANQEIRYSEVTPYHIKTVWTKGVTPPANFTQGEDVFHAPYVANQGWYDITKTFNGKDDLLCGAATAGNMLHWWFDQNKDQIKRYLEEHPEKQKINFNGEQMFDVKEAIDTKNHQLDSKLFEYFKEKAFPYLSTKHLGVFPDHVIDMFINGYRLSLTNHGPTPVKEGSKDPRGGIFDAVFTRGDQSKLLTSRHDFKEKTLNDISQLIKQELQSGKALGLSHTYANVRINHVINLWGADFDAEGNLEAIYVTDSDSNASIGMKKYFVGKNSAGKVAISAKEIKEDNIGAQVLGLFTLSTGQDSWNQTN
B10: PRT-144 (protein)
chain: MANQEIRYSEVTPYHITSVWTKGVTPPANFTQGEDVFHAPYVANQGWYDITKTFNGKDDLLCGAATAGNMLHWWFDQNKDQIKRYLEEHPEKQKINFNGEQMFDVKEAIDTKNHQLDSKLFEYFKEKAFPYLSTKHLGVFPDHVIDMFINGYRLSLTNHGPTPVKEGSKDPRGGIFDAVFTRGDQSKLLTSRHDFKEKTLNDISQLIKQELQSGKALGLSHTYANVRINHVINLWGADFDAEGNLEAIYVTDSDSNASIGMKKYFVGKNSAGKVAISAKEIKEDNIGAQVLGLFTLSTGQDSWNQTN
B11: PRT-147 (protein)
chain: MANQEIRYSEVTPYHIKIVWTKGVTPPANFTQGEDVFHAPYVANQGWYDITKTFNGKDDLLCGAATAGNMLHWWFDQNKDQIKRYLEEHPEKQKINFNGEQMFDVKEAIDTKNHQLDSKLFEYFKEKAFPYLSTKHLGVFPDHVIDMFINGYRLSLTNHGPTPVKEGSKDPRGGIFDAVFTRGDQSKLLTSRHDFKEKTLNDISQLIKQELQSGKALGLSHTYANVRINHVINLWGADFDAEGNLEAIYVTDSDSNASIGMKKYFVGKNSAGKVAISAKEIKEDNIGAQVLGLFTLSTGQDSWNQTN
B12: PRT-145 (protein)
chain: MANQEIRYSEVTPYHITSVWTKGVTPPANFTQGEDVFHAPYVANQGWYDITKTFNGKDDLLCGAATAGNMLHWWFDQNKDQIKRYLEEHPEKQKINFNGEQMFDVKEAIDTKNHQLDSKLFEYFKEKAFPYLSTKHLGVFPDHVIDMFINGYRLSLTNHGPTPVKEGSKDPRGGIFDAVFTRGDQSKLLTSRHDFKEKTLNTISQLIKQELQSGKALGLSHTYANVRINHVINLWGADFDAEGNLEAIYVTDSDSNASIGMKKYFVGKNSAGKVAISAKEIKEDNIGAQVLGLFTLSTGQDSWNQTN
B13: PRT-141 (protein)
chain: MRNATEAYAKEVPHQITSVWTKGVTPLTPEQFRYNNEDVIHAPYLAHQGWYDITKAFDGKDNLLCGAATAGNMLHWWFDQNKTEIEAYLSKHPEKQKIIFNNQELFDLKAAIDTKDSQTNSQLFNYFRDKAFPNLSARQLGVMPDLVLDMFINGYYLNVFKTQSTDVNRPYQDKDKRGGIFDAVFTRGDQTTLLTARHDLKNKGLNDISTIIKQELTEGRALALSHTYANVSISHVINLWGADFNAEGNLEAIYVTDSDANASIGMKKYFVGINAAGHVAISAKKIEGENIGAQVLGLFTLSSGKDIWQKLS
B14: PRT-142 (protein)
chain: MRNATEAYAKEVPHQITSVWTKGVTPLTPEQFRYNNEDVFHAPYLAHQGWYDITKAFDGKDNLLCGAATAGNMLHWWFDQNKTEIEAYLSKHPEKQKIIFNNQELFDLKAAIDTKDSQTNSQLFNYFRDKAFPNLSARQLGVMPDLVLDMFINGYYLNVFKTQSTDVNRPYQDKDKRGGIFDAVFTRGDQTTLLTARHDLKNKGLNDISTIIKQELTEGRALALSHTYANVSISHVINLWGADFNAEGNLEAIYVTDSDANASIGMKKYFVGINAHGHVAISAKKIEGENIGAQVLGLFTLSSGKDIWQKLS

What follows are proteins tested against pooled human IgG.
For B1, the Enzyme Activity Endpoint Assay: Fab′2 was 2 ng/µL, the Enzyme Activity Endpoint Assay: Fc was 74 ng/µL and the Enzyme Activity Endpoint Assay: IgG was 12 ng/µL. For the same protein, the Enzyme Activity Endpoint Assay: scIgG was 66 ng/µL.
Protein B2 has an Enzyme Activity Endpoint Assay (purified): Fab'2 of 764 ng/µL, an Enzyme Activity Endpoint Assay (purified): Fc of 203 ng/µL and an Enzyme Activity Endpoint Assay (purified): IgG of 0 ng/µL. The Enzyme Activity Endpoint Assay (purified): scIgG was 0 ng/µL.
For B3, the Enzyme Activity Endpoint Assay (purified): Fab'2 was 619 ng/µL, the Enzyme Activity Endpoint Assay (purified): Fc was 190 ng/µL and the Enzyme Activity Endpoint Assay (purified): IgG was 0 ng/µL. It also gave an Enzyme Activity Endpoint Assay (purified): scIgG of 0 ng/µL.
B4 was tested, and the Enzyme Activity Endpoint Assay (purified): Fab'2 was 612 ng/µL, the Enzyme Activity Endpoint Assay (purified): Fc was 161 ng/µL and the Enzyme Activity Endpoint Assay (purified): IgG was 0 ng/µL. For the same protein, the Enzyme Activity Endpoint Assay (purified): scIgG was 0 ng/µL.
B5 was tested, and the Enzyme Activity Endpoint Assay (purified): Fab'2 was 521 ng/µL, the Enzyme Activity Endpoint Assay (purified): Fc was 137 ng/µL and the Enzyme Activity Endpoint Assay (purified): IgG was 0 ng/µL. It also gave an Enzyme Activity Endpoint Assay (purified): scIgG of 0 ng/µL.
In the case of B6, the Enzyme Activity Endpoint Assay (purified): Fab'2 is reported as 614 ng/µL, the Enzyme Activity Endpoint Assay (purified): Fc is reported as 158 ng/µL and the Enzyme Activity Endpoint Assay (purified): IgG is reported as 0 ng/µL. For the same protein, the Enzyme Activity Endpoint Assay (purified): scIgG was 0 ng/µL.
In the case of B7, the Enzyme Activity Endpoint Assay (purified): Fab'2 is reported as 831 ng/µL, the Enzyme Activity Endpoint Assay (purified): Fc is reported as 0 ng/µL and the Enzyme Activity Endpoint Assay (purified): IgG is reported as 0 ng/µL. It also gave an Enzyme Activity Endpoint Assay (purified): scIgG of 0 ng/µL.
B8 was tested, and the Enzyme Activity Endpoint Assay (purified): Fab'2 was 576 ng/µL, the Enzyme Activity Endpoint Assay (purified): Fc was 170 ng/µL and the Enzyme Activity Endpoint Assay (purified): IgG was 0 ng/µL. For the same protein, the Enzyme Activity Endpoint Assay (purified): scIgG was 0 ng/µL.
B9 was tested, and the Enzyme Activity Endpoint Assay (purified): Fab'2 was 672 ng/µL, the Enzyme Activity Endpoint Assay (purified): Fc was 215 ng/µL and the Enzyme Activity Endpoint Assay (purified): IgG was 0 ng/µL. It also gave an Enzyme Activity Endpoint Assay (purified): scIgG of 0 ng/µL.
B10 gave an Enzyme Activity Endpoint Assay (purified): Fab'2 of 562 ng/µL, an Enzyme Activity Endpoint Assay (purified): Fc of 151 ng/µL and an Enzyme Activity Endpoint Assay (purified): IgG of 0 ng/µL. It also gave an Enzyme Activity Endpoint Assay (purified): scIgG of 26 ng/µL.
B11 was tested, and the Enzyme Activity Endpoint Assay (purified): Fab'2 was 723 ng/µL, the Enzyme Activity Endpoint Assay (purified): Fc was 206 ng/µL and the Enzyme Activity Endpoint Assay (purified): IgG was 0 ng/µL. The Enzyme Activity Endpoint Assay (purified): scIgG was 0 ng/µL.
Protein B12 has an Enzyme Activity Endpoint Assay (purified): Fab'2 of 735 ng/µL, an Enzyme Activity Endpoint Assay (purified): Fc of 207 ng/µL and an Enzyme Activity Endpoint Assay (purified): IgG of 0 ng/µL. It also gave an Enzyme Activity Endpoint Assay (purified): scIgG of 0 ng/µL.
B13 was tested, and the Enzyme Activity Endpoint Assay (purified): Fab'2 was 846 ng/µL, the Enzyme Activity Endpoint Assay (purified): Fc was 215 ng/µL and the Enzyme Activity Endpoint Assay (purified): IgG was 0 ng/µL. For the same protein, the Enzyme Activity Endpoint Assay (purified): scIgG was 0 ng/µL.
Protein B14 has an Enzyme Activity Endpoint Assay (purified): Fab'2 of 589 ng/µL, an Enzyme Activity Endpoint Assay (purified): Fc of 135 ng/µL and an Enzyme Activity Endpoint Assay (purified): IgG of 0 ng/µL. For the same protein, the Enzyme Activity Endpoint Assay (purified): scIgG was 0 ng/µL.
